Consider two molecules from patent US20150239929A1 (PORTOLA PHARMACEUTICALS, published 2015).

B1: r-Antidote (fXa derivative, cleaved two-chain polypeptide of SEQ ID NO: 2) (enzyme)
light: ANSFLFWNKYKDGDQCETSPCQNQGKCKDGLGEYTCTCLEGFEGKNCELFTRKLCSLDNGDCDQFCHEEQNSVVCSCARGYTLADNGKACIPTGPYPCGKQTLER
heavy: IVGGQECKDGECPWQALLINEENEGFCGGTILSEFYILTAAHCLYQAKRFKVRVGDRNTEQEEGGEAVHEVEVVIKHNRFTKETYDFDIAVLRLKTPITFRMNVAPACLPERDWAESTLMTQKTGIVSGFGRTHEKGRQSTRLKMLEVPYVDRNSCKLSSSFIITQNMFCAGYDTKQEDACQGDAGGPHVTRFKDTYFVTGIVSWGEGCARKGKYGIYTKVTAFLKWIDRSMKTRGLPKAKSHAPEVITSSPLK
notes: Made in CHO cells; the two chains are linked by a disulfide bond; also called target protein; functional protein

The target in test [1] is Aprotinin, immobilised on agarose (Aprotinin-Agarose, catalog #A2268) (UniProt P00974 36-93). The test is described as follows: affinity column loading, 1 mL resin, 20 mM Tris/150 mM NaCl pH 7.4. The method, then: Commercially available affinity resins were screened for their efficacy in purifying r-Antidote. Various affinity resins were packed into a column (such as a Tricorn column, GE) with 1 mL of resin. Following sanitization according to manufacturer's recommendations, the column was equilibrated with 20 mM Tris/150 mM NaCl at pH 7.4, followed by testing their ability to bind r-Antidote in the same buffer. r-Antidote at a concentration of 0.145 mg/mL in PBS (Phosphate Buffered Saline), was loaded onto the column at a flow rate of 1 mL/min by injection (1 mL).

The target in test [2] is B1. The test is described as follows: affinity column loading of purified r-Antidote, 1 mL resin, 20 mM Tris/150 mM NaCl pH 7.4.

B1: the binding result in test [1] is given as “no binding (tested: 0.145 mg/mL (1 mL injected))”.

B2: Soybean Trypsin Inhibitor (STI), immobilised on affinity resin (other, Glycine max (soybean), UniProt P01070 25-205, looked up)
chain: DFVLDNEGNPLENGGTYYILSDITAFGGIRAAPTGNERCPLTVVQSRNELDKGIGTIISSPYRIRFIAEGHPLSLKFDSFAVIMLCVGIPTEWSVVEDLPEGPAVKIGENKDAMDGWFRLERVSDDEFNNYKLVFCPQQAEDDKCGDIGISIDHDDGTRRLVVSKNKPLVVQFQKLDKESL
notes: also called STI-Agarose
Consider B2, for which the binding result in test [2] is on record as “binds”.
